B1: TPR t1 (parent)
chain: GACCAAUCUGCCCUCAGAGCUCGAGAACAUCUUCGGAUGCAGAGGAGGCAGGCUUCGGUGGCGCGAUAGCGCCAACGUCCUCAACCUCCAAUGCAUCCCACCACAUGAUGAUGCCUGAAGAGCCUUGGUUUUUUG

Variants of: B1
Test: polymerase ribozyme fitness, log enrichment relative to wild type (log ratio); higher = more active; in vitro selection for triplet polymerase activity
In short: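 Mutant libraries for each subunit of a heterodimeric triplet polymerase ribozyme were made by PCR and then transcribed. Each library underwent one round of in vitro selection in triplicate: annealing with a biotinylated primer, the partner subunit and triplets, frozen incubation at −7 °C, gel excision of extended constructs, streptavidin-bead capture and RT-PCR. Input and output libraries were Illumina-sequenced, and only genotypes with ≥10 input reads and ≥1 read per output were kept. Fitness is the logarithm, base 2, of genotype enrichment over wild-type enrichment, computed from inverse-variance-weighted replicate averages.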

Variant	polymerase ribozyme fitness (log ratio)
G65U A66C	-4.3
G65U C72A C88G C124A	-5.79
G65U C124A	-4.07
A66C A84C C123U U133G	-0.245
A66C C82A	-1.46
A66C C82G	-2.06
A66C C85A C86A	-2.7
A66C C85U C88A	-1.61
A66C G113C G120U	-5.98
A66C G117A A119U	-2.36
A66C U112C A119C	-1.53
A66C U130C	-0.918
A66G A100U G128A	-5.33
A66G C72U C80U C123A	-3.12
A66G C97U U112G	-2.06
A66G G128C	-3.65
A66G U87A C99U A118U	-4.99
A66G U106G	-3.66
A66G U126G	-2.72
A66U A105U	-4.44
A66U C76U C89G C124U G128U U132C	-5.09
A66U C76U U106C A119G U126C U130A	-2.47
A66U C80A	-5.71
A66U C89U	-1.51

Variant	polymerase ribozyme fitness (log ratio)
A66U G71C	-3.02
A66U G77C C82U G128C	-4.12
A66U U78C	-0.769
A66U U78C C123U	-0.156
A66U U81A	-1.96
A66U U106C	-1.81
A66U U125G	-1.48
U67A A74U C94G C101A G113C	-7.83
U67C A105U	-4.9
U67C C88A	-5.76
U67C C88A G117C	-5.9
U67C C94A C123U	-6.04
U67C C123G	-4.34
U67C G110U	-3.86
U67C G120U	-4.12
U67C U131A	-4.05
U67G C82A	-6.14
A68C	-6.94
A68C C124A	-5.4
A68G	-2.44
A68G A90U	-4.47
A68G C79G A105G G110U	-8.49
A68G C88G A105C A111C	-4.63
A68G C101G	-3.93

Variant	polymerase ribozyme fitness (log ratio)
A68G C114U	-5.48
A68G G71A A95C	-6.02
A68G U112C	-0.794
A68U	-7.01
A68U A90G C101G G113A G117C	-5.75
A68U A111C	-7.12
A68U C115A G120C	-7.66
A68U C124U	-5.86
G69A A84U	-3.06
G69A A84U A91G	-6.33
G69A A91U	-6.02
G69A A121U	-0.353
G69A A121U U126G	-2.09
G69A C72G A95G U125A	-6.14
G69A C73A	-2.75
G69A C82U G120A G122U	-2.26
G69A C88G C102U	-6.62
G69A C89G C97A A105C G110U	-6.73
G69A C98U	-3.52
G69A C104U G120A U133A	-0.971
G69A C104U G127A U129A	-2.62
G69A C114A	-5.11
G69A C114G	-4.69
G69A C114U	-5.33

Variant	polymerase ribozyme fitness (log ratio)
G69A C115G	-3.93
G69A G120U	-2.36
G69A G135U	-3.93
G69A U78A G93A	-4.02
G69A U81A	-3.16
G69A U81A C82U A119G G122U U125A U129C	-5.05
G69A U81A C86G	-4.96
G69A U96C	-3.08
G69A U130A U133G	-2.25
G69A U131A	-2.38
G69A U131G	-3.12
G69A U133A	-3.31
G69C A75G	-2.54
G69C A83U U129A	-1.71
G69C A91G	-1.94
G69C A100U	-1.67
G69C C70A A91C	-7.25
G69C C70G C82A	-4.81
G69C C72A C94G	-5.12
G69C C82A C97G U132A	-5.29
G69C C86G A91U	-4.84
G69C C94U	-1.35
G69C C97G C101A G107A U112G U130G	-6.6
G69C C98U	-1.79

Variant	polymerase ribozyme fitness (log ratio)
G69C C101A	-2.4
G69C C104A C123G	-1.33
G69C C123G	0.685
G69C C124U	0.177
G69C G110C	-4.54
G69C G113A	-1.72
G69C G117A	-2.37
G69C G120C	-0.251
G69C G122U C124U	-0.632
G69C U78A	-2.44
G69C U78G C102U G110A	-6.81
G69C U81G	-5.01
G69C U81G C82U C104U U112G	-2.5
G69C U106A C124A G128A	-1.94
G69C U116C	-1.92
G69C U126A	-3.12
G69C U130A	-1.59
G69C U133A	-1.62
G69U A83U G127A	-1.18
G69U A84U C124U	1.84
G69U A103C U131C	-1.05
G69U A105C	-0.532
G69U A105U	-0.0845
G69U A111U	-1.16

Variant	polymerase ribozyme fitness (log ratio)
G69U C70G A100C	-1.23
G69U C70G U92C G122A U125A	-3.32
G69U C70G U109A A111C	-5.41
G69U C70U C80U G113C A119G	-3.06
G69U C72G C102U U125G	-1.81
G69U C72G U78G U129C	-1.86
G69U C72U C114A G128A	-3.08
G69U C76G C85G G120U	-2.87
G69U C79U C80U U116C	-0.478
G69U C88G	-0.121
G69U C89U	-0.148
G69U C94A C101G G120U	-1.15
G69U C94U U112C	1.42
G69U C98U C115A U130A	-1.03
G69U C99U	-1.7
G69U C102A	-1.4
G69U C102U	-1.18
G69U C104A U126A	-1.49
G69U C114G	-0.996
G69U C115A	1
G69U C123U	1.98
G69U G93A	-0.201
G69U G93U G120A U125G U129G	-0.716
G69U G110A A118C	0.45

Variant	polymerase ribozyme fitness (log ratio)
G69U G113U	-0.867
G69U G117C	-2.27
G69U G120U	1.02
G69U G135U	-0.532
G69U U78C C102U	0.0221
G69U U112A	1.84
G69U U112G C123G	1.13
G69U U125A	-0.179
G69U U130G	0.642
G69U U133G	0.15
C70A A83G C85A C88U	-2.53
C70A A83G C85U G113U G117U	-6.04
C70A A100U	-2.07
C70A A111C	-2.46
C70A A111G	-1.42
C70A A121C	0.356
C70A A121G	0.93
C70A C73G G120C	-5.26
C70A C73U A111C	-2.13
C70A C82A	-1.54
C70A C85U G110C C115U A121G	-7.89
C70A C86A U87G	-2.94
C70A C88A	-1.82
